In the assay the target is calmodulin (CaM), recombinant bovine 1-149 (UniProt P62157). In words: ITC, peptide titrated into CaM. The conditions noted are these: reference: unphosphorylated H1H2; sites S648.

As to “NHE1 (Na+/H+ exchanger 1, hNHE1) H1H2, 622-692 (from UniProt P19634) Akt-phosphorylated H1H2 (pS648)”, the KD result is “weaker; reference Kd,1 0.27 ± 0.07; Kd,2 560 ± 10”.

For the origin of these results see paper PMC8009664.
